Source: patent publication US10925971B2, “Methods of treating PRLR positive breast cancer” (Regeneron Pharmaceuticals, Inc., priority 2016, dated 2021)
Where two headings read alike, the source gives them in different places.

Assays:
MCF7/PRLR tumors = experiment: MCF7/PRLR breast cancer xenograft, tumor size and tumor growth inhibition; format: in vivo, NCr nude mice
Outline: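 MCF7/PRLR cells in mammary fat pad of female NCr nude mice, PC3/PRLR in flank of male SCID, T47D #11 in flank of female CB17 SCID, all with estrogen pellets.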

T47D#11 tumors = format: in vivo, CB17 SCID mice; conditions: for Average Tumor Growth Inhibition (%) / Final Tumor size mm^3 (mean ± SEM): T47D#11 tumors, SCID mice, Day 66
From the text: Briefly, 20×10^6 MCF7/PRLR cells (ATCC HTB-22 transfected with full length hPRLR as previously described) were implanted subcutaneously into the left mammary fat pad of female NCr nude mice. In other studies, 10×10^6 PC3/PRLR (ATCC CRL-1435 transfected with full length hPRLR as previously described) were implanted subcutaneously into the left flank of male SCID mice. Additionally, 10×10^6 parental T47D (ATCC HTB-133) or 7.5×10^10 T47D #11 cells (ATCC HTB-133 serially passaged in vivo as described below) were subcutaneously implanted into the left flank of female CB17 SCID mice. All mice were obtained from Taconic (Hudson, N.Y.). Each bolus of cells was supplemented with a 90-day estrogen release pellet (1.7 mg/pellet; Innovative Research America, Sarasota Fla.). […] Control reagents included PBS vehicle, free methyl-disulfide DM1 (DM1-SMe) and isotype Control 1-DM1.
In multi-dose studies, mice were dosed once a week for a total of three weeks with tumor volumes and body weights being monitored twice weekly throughout the study. Test ADCs were dosed at 5 and/or 15 mg/kg in the multi-dose studies. In single-dose studies, mice received a single dose of test ADC, and tumor volumes and body weights were monitored twice weekly throughout the study. Test ADCs were dosed at 1, 2.5, 5, and 15 mg/kg in the single-dose studies. Average tumor size as well as tumor growth inhibition relative to the vehicle treated group were calculated for each group. Tumors were measured with calipers twice a week until the average size of the vehicle group reached 1000 mm^3. Tumor size was calculated using the formula (length×width^2)/2. Tumor growth inhibition was calculated according to the following formula: (1−((Tfinal−Tinitial)/(Cfinal−Cinitial)))*100, where T (treated group) and C (control group) represent the mean tumor mass on the day the vehicle group reached 1000 mm^3. […] Results are summarized in Tables 21-25 (multi-dose) and Table 26 (single dose). (NT=not tested in the particular experiment shown).

T47Dv11 tumors = experiment: T47Dv11 breast tumor xenograft, single agent and combination with fulvestrant; format: in vivo, C.B.-17 SCID mice
Protocol: The T47Dv11 model was used to assess the activity of H1H6958N2-DM1 in a model with significant levels of endogenous PRLR. […] Initially, 10×10^6 parental T47D cells were implanted subcutaneously (SC) into the left flank of female C.B.-17 SCID mice (Taconic, Hudson N.Y.). Tumors were supplemented with a 90-day release 1.7 mg estrogen pellet (Innovative Research America). Where T47D tumors were observed, they were excised and cut into 3 mm fragments and subsequently implanted into the left flank of separate female C.B.-17 SCID mice. Subsequent passaging was performed until a large tumor was disaggregated into a single cell suspension. The cells (named T47Dv11) from this tumor were then cultured in vitro and expanded. […] For efficacy studies, mice were implanted with 7.5×10^6 T47Dv11 cells into the left flank of female C.B.-17 SCID mice supplemented with a 90-day release 0.72 mg/pellet estrogen pellet. For MCF7 and MCF7/PRLR tumor xenografts, 2×10^7 MCF7/PRLR cells were implanted SC into the left mammary fat pad of female NCr nude mice (7-8 weeks old) supplemented with 90-day release 0.72 mg/pellet estrogen pellets. Tumors were measured with calipers twice a week for the duration of each study. Tumor volume was calculated using the formula TV=(length×width^2)/2.
After T47Dv11 tumors reached an average volume of ˜150-200 mm^3 (14-16 days post implantation), mice were randomized into treatment groups (n=8-9 mice/group) and received a single dose or three once-weekly doses of H1H6958N2-DM1, control ADC, or vehicle control, administered systemically by intravenous tail-vein injection. […] Tumor size and body weight were measured in vivo twice per week throughout the duration of the study.
Next, the combination of H1H6958N2-DM1 with the SERD fulvestrant was tested in the T47Dv11 xenograft model. Here, the activity of either agent at partially effective doses was compared against the activity of the agents in combination. First, a dose titration study of weekly administration of fulvestrant was performed in order to establish its single agent activity (FIG. 4).
For the subcutaneous tumors, average tumor size as well as tumor growth inhibition relative to the Vehicle treated group were calculated for each group. Tumors were measured with calipers twice a week until the average size of the vehicle group reached 1200 mm^3. Tumor size was calculated using the formula (length×width^2)/2. For all studies, tumor growth inhibition was calculated according to the following formula: (1−((Tfinal−Tinitial)/(Cfinal−Cinitial)))*100, where T (treated group) and C (control group) represent the mean tumor mass on the day the vehicle group reached 1000 mm^3.

[1] = MCF7/PRLR tumors TRIAL #2, NCr Nude mice, multi-dose 15 mg/kg, Day 63
[2] = MCF7/PRLR tumors TRIAL #1, NCr Nude mice, multi-dose 5 mg/kg, Day 52
[3] = MCF7/PRLR tumors TRIAL #1, NCr Nude mice, multi-dose 15 mg/kg, Day 52
[4] = MCF7/PRLR tumors TRIAL #2, NCr Nude mice, multi-dose 5 mg/kg, Day 63

B1: H1H6765P: fully human anti-PRLR antibody, human IgG1 Fc; HCVR/LCVR SEQ ID NOs 18/26 (antibody, V domains shown)
VH: EVQLVESGGGVVRPGGSLRLSCVGSGFSFDDHGMNWVRQGPGKGLEWVSGFNWNGGSTNYAESVKGRFTISRDNARNSLFLQMNSLRAEDTALYYCVRGRSGWFNDAFDVWGPGTMVTVSS
VL: EIVLTQSPGTLSLSPGERATLSCRASQTINSNYLAWYRQKPGQTPRLLIYGTSSRATGIPDRFSGSGSGTDFSLTISRLEPEDFAVFYCQQYAGLPTFGPGTKVDIK
MCF7/PRLR tumors; [1]
  Average Tumor Growth Inhibition (%): 19%
  Final Tumor size mm^3 (mean ± SEM): 737 ± 182 mm^3
T47D#11 tumors; multi-dose 15 mg/kg
  Average Tumor Growth Inhibition (%): −3%
  Final Tumor size mm^3 (mean ± SEM): 1278 ± 164 mm^3

B2: H1H6958N2-DM1: anti-PRLR antibody H1H6958N2 conjugated to the maytansinoid DM1 through an SMCC linker (conjugate)
VH: QVQLVESGGGVVQPGRSLRLSCGASGFTFRNYGMQWVRQGPGKGLEWVTLISFDGNDKYYADSVKGRFTISRDNSKNTLFLQMNSLRTEDTAVYYCARGGDFDYWGQGTLVTVSS
VL: DIQMTQSPSSLSASVGDRVTITCRASQDIRKDLGWYQQKPGKAPKRLIYAASSLHSGVPSRFSGSGSGTEFTLTISSLQPEDFATYYCLQHNSYPMYTFGQGTKLEIK
MCF7/PRLR tumors; [2]
  Average Tumor Growth Inhibition (%): 128%
  Final Tumor size mm^3 (mean ± SEM): 51 ± 33 mm^3
MCF7/PRLR tumors; [3]
  Average Tumor Growth Inhibition (%): 133%
  Final Tumor size mm^3 (mean ± SEM): 0 ± 0 mm^3
MCF7/PRLR tumors; [4]
  Average Tumor Growth Inhibition (%): 116%
  Final Tumor size mm^3 (mean ± SEM): 117 ± 10 mm^3
MCF7/PRLR tumors; [1]
  Average Tumor Growth Inhibition (%): 137%
  Final Tumor size mm^3 (mean ± SEM): 0 ± 0 mm^3
MCF7/PRLR tumors; first multi-dose trial, 5 and 15 mg/kg
  MCF7/PRLR tumor growth: potently inhibited MCF7/PRLR tumor growth
MCF7/PRLR tumors; single dose 1 mg/kg
  tumor volume relative to vehicle control tumors: significant decrease in tumor volume
T47D#11 tumors; multi-dose 5 mg/kg
  Average Tumor Growth Inhibition (%): 102%
  Final Tumor size mm^3 (mean ± SEM): 168 ± 19 mm^3
T47D#11 tumors; multi-dose 15 mg/kg
  Average Tumor Growth Inhibition (%): 112%
  Final Tumor size mm^3 (mean ± SEM): 44 ± 5 mm^3
T47D#11 tumors; repeat dosing 5 and 15 mg/kg
  T47D #11 tumor growth: potently inhibited tumor growth
T47Dv11 tumors; T47DvII tumors in SCID mice, Day 70, 2.5 mg/kg
  Final Tumor Volume (mean ± SD): 386 ± 249 mm^3
T47Dv11 tumors; combination study, individual treatment 2.5 mg/kg single dose
  anti-tumor activity: Significant anti-tumor activity
T47Dv11 tumors; single dose 2.5 or 5 mg/kg
  tumor growth: significantly inhibited tumor growth
T47Dv11 tumors; three doses of 5 or 15 mg/kg
  tumor growth: tumor regression

B3: H1H6958N2: anti-PRLR antibody, receptor blocking, human IgG1 Fc form of H2M6958N2 of Table 1; HCVR/LCVR SEQ ID NOs 290/298 (antibody, V domains shown)
VH: B2 VH
VL: B2 VL
MCF7/PRLR tumors; [3]
  Average Tumor Growth Inhibition (%): 74%
  Final Tumor size mm^3 (mean ± SEM): 483 ± 46 mm^3
MCF7/PRLR tumors; [1]
  Average Tumor Growth Inhibition (%): 17%
  Final Tumor size mm^3 (mean ± SEM): 766 ± 128 mm^3
MCF7/PRLR tumors; MCF7/PRLR tumors, single dose 15 mg/kg, Day 55
  Final Tumor size mm^3 (mean ± SEM): 703 ± 160 mm^3
T47D#11 tumors; multi-dose 15 mg/kg
  Average Tumor Growth Inhibition (%): −3%
  Final Tumor size mm^3 (mean ± SEM): 1259 ± 122 mm^3
T47Dv11 tumors; T47Dv11 model, dose not stated
  tumor growth, controls: no effect on tumor growth

B4: H1H6782P: fully human anti-PRLR antibody, non-blocking; HCVR/LCVR SEQ ID NOs 66/74 (antibody, V domains shown)
VH: EVQLVESGGGLVQPGRSLRLSCAASGFTFDDYAMHWVRQAPGKGLEWVSGIIWNSGHIGYGDSVKGRFTISRDNAKKSLYLQMNSLRAEDTALYYCARDSGRYQSYFDYWGQGTLVTVSS
VL: DIQMTQSPSTLSASVGDRVTITCRASHIISSWLAWYQQKPGKAPKVLIFKASSLESGVPSRFSGSGSGTEFTLTISSLQPDDFATYYCQQYNTYSRTFGQGTKVEIK
MCF7/PRLR tumors; [1]
  Average Tumor Growth Inhibition (%): 88%
  Final Tumor size mm^3 (mean ± SEM): 300 ± 83 mm^3
T47D#11 tumors; multi-dose 15 mg/kg
  Average Tumor Growth Inhibition (%): −29%
  Final Tumor size mm^3 (mean ± SEM): 1537 ± 111 mm^3

B5: H1H6953N: anti-PRLR antibody, human IgG1 Fc form of H1M6953N of Table 1; HCVR/LCVR SEQ ID NOs 274/282 (antibody, V domains shown)
VH: EVQLLESGGGLVQPGGTLRLSCAASGFTFSAYAMSWVRQAPGKGLEWVSSINVRAGDTYYADSVKGRFTISRDNSKNTLFLLMNSLRAEDTAAYYCAKARYSSNWGFDFWGQGTLVTVSS
VL: DIVMTQSPDSLTVSLGARTTINCQSSQTILHSSNNHNYLAWYQQKPGLPPKLLIYWSSTRESGVPDRFSGSGSGTDFTLTISSLQAEDVAIYYCQQYSNTPYTFGQGTKLEIN
MCF7/PRLR tumors; [3]
  Final Tumor size mm^3 (mean ± SEM): 421 ± 23 mm^3

B6: H1H6975N: anti-PRLR antibody, human IgG1 Fc form of H2M6975N of Table 1; HCVR/LCVR SEQ ID NOs 370/378 (antibody, V domains shown)
VH: EVHLVESGGGLVQPGGSLRLSCAASGFTFSSYEMNWVRQTPGKGLEWISHISSRSVIIYYADSVKGRFTISRDNAKNSLFLQMNSLRAEDTAVYFCAGITIFGIPEYWGQGTLVTVSS
VL: EIVLTQSPATLSLSPGERATLSCRASQSVSSYFAWYQQKPGQAPRLLIYDASSRATGIPTRFSGSGSGTDFTLTISSLEPEDFAVYYCQQRSSWPITFGQGTRLEIK
modifications: human IgG1 Fc
MCF7/PRLR tumors; [3]
  Average Tumor Growth Inhibition (%): 51%
  Final Tumor size mm^3 (mean ± SEM): 659 ± 144 mm^3
